The values that follow come from paper PMC12048173.

By stoichiometry N is commonly meant the number of molecules, sites or subunits per partner or assembly.

This assay concerns the target Full-length Stigmatella aurantiaca bacteriophytochrome 2 (SaBphP2), Pr state (Stigmatella aurantiaca). Nature of the assay: cryo-EM structure; single-particle cryo-EM, Spotiton nanowire grid, 0.4 mg/ml, pre-illuminated with 740 nm light (pure Pr state); global resolution 6.0 Å; subunits fitted as rigid units, not refined.

Consider “Full-length Stigmatella aurantiaca bacteriophytochrome 2 (SaBphP2), Pr state (natural protein)”, for which the stoichiometry N turned out to be 2.
